Laboratory results as given in publication PMC13399020 (The FASEB Journal, 2026).
Several values for one entry are separate records, joined by “and”; a condition that tells them apart may be missing. Identical values can stand only once.

B1: phenylalanine hydroxylase, wild type (PAH-WT), full-length (enzyme, human, UniProt P00439 1-452, looked up)
chain: MSTAVLENPGLGRKLSDFGQETSYIEDNCNQNGAISLIFSLKEEVGALAKVLRLFEENDVNLTHIESRPSRLKKDEYEFFTHLDKRSLPALTNIIKILRHDIGATVHELSRDKKKDTVPWFPRTIQELDRFANQILSYGAELDADHPGFKDPVYRARRKQFADIAYNYRHGQPIPRVEYMEEEKKTWGTVFKTLKSLYKTHACYEYNHIFPLLEKYCGFHEDNIPQLEDVSQFLQTCTGFRLRPVAGLLSSRDFLGGLAFRVFHCTQYIRHGSKPMYTPEPDICHELLGHVPLFSDRSFAQFSQEIGLASLGAPDEYIEKLATIYWFTVEFGLCKQGDSIKAYGAGLLSSFGELQYCLSEKPKLLPLELEKTAIQNYTVTEFQPLYYVAESFNDAKEKVRNFAATIPRPFSVRYDPYTQRIEVLDNTQQLKILADSINSEIGILCSALQKIK
modifications: biotin (EZ-Link NHS-PEG4-Biotin) in the BLI experiments only
notes: phenylalanine hydroxylase (PAH), human, wild type; RD residues 1-110, CD 111-410, OD 411-452; Homotetramer; a minor octamer is also seen; also called full-length PAH

Experiments:
[1] = molecular target: B1; test: differential scanning fluorimetry; thermal unfolding of PAH (1.92 μM) with SYPRO Orange at increasing DNAJC12(176-198) peptide (0-16 μM); Tm1 followed; conditions: both partners purified
[2] = molecular target: the molecule itself; test: SEC-MALS; MBP-PAH(RD) (4 mg/mL) alone or with DNAJC12 (4 mg/mL); Superdex 200 Increase, 20 mM Na-Hepes pH 7.0, 200 mM NaCl, 1 mM L-Phe
[3] = molecular target: T1, DNAJC12, wild type, full-length (human, UniProt Q9UKB3 1-198); test: SEC; with 1 mM L-Phe in sample and running buffer; 20 μM (subunit) PAH, PAH variant or MBP-PAH construct with 20-40 μM DNAJC12 or truncated DNAJC12; Superdex 200 Increase, 4°C, 20 mM Na-Hepes pH 7.0, 200 mM NaCl; complex fraction also checked by SDS-PAGE; conditions: both partners purified
T1 construct: J-domain 14-76, linker-helix 87-100, CTD 176-198; also called DNAJC12-WT

[4] = molecular target: T1, DNAJC12, wild type, full-length; test: BLI; without L-Phe; biotinylated PAH or TH on streptavidin biosensors, DNAJC12 0.01-4 μM in solution; 25°C, PBS, 0.02% Tween-20, 0.5 mg/mL BSA; responses against concentration fitted to a one-site hyperbola; conditions: both partners purified
[5] = molecular target: the molecule itself; test: SEC-MALS; PAH (2 mg/mL) and pre-purified PAH:DNAJC12 complex (2 mg/mL); Superdex 200 Increase, 20 mM Na-Hepes pH 7.0, 200 mM NaCl, without L-Phe supplementation
[6] = molecular target: T1, DNAJC12, wild type, full-length; test: BLI; with 1 mM L-Phe; biotinylated PAH on streptavidin biosensors, DNAJC12 0.01-4 μM in solution; 25°C, PBS, 0.02% Tween-20, 0.5 mg/mL BSA; responses against concentration fitted to a one-site hyperbola; conditions: both partners purified

binding result [3] | Kd [4] | Binder | further results
– | – | HLRFRWSKDAPSELLRKFRNYEI (peptide, UniProt Q9UKB3 176-198, looked up, only its last seven residues 192-KFRNYEI-198 are printed; also called C-terminal DNAJC12 peptide; CTD peptide; source: synthetic peptide, bought: GenScript) [C-terminal peptide DNAJC12(176-198)] | binding result [1]: binds
binds | – | MBP-PAH(33-112) (domain or fragment, human, UniProt P00439 33-112, looked up, Derived from pMAL-c5x/PAH (GenScript); Dimer in 1 mM L-Phe by SEC-MALS; theoretical monomer 52.9 kDa with MBP; also called MBP-PAH(RD); PAH(RD); source: E. coli K12 TB1, purified) GAISLIFSLKEEVGALAKVLRLFEENDVNLTHIESRPSRLKKDEYEFFTHLDKRSLPALTNIIKILRHDIGATVHELSRD | stoichiometry N [2]: 2 subunits in the oligomer
– | 138 ± 34 nM | tyrosine hydroxylase (TH) (enzyme, biotin (EZ-Link NHS-PEG4-Biotin) in the BLI experiment only, tyrosine hydroxylase (TH); The methods tell neither plasmid nor purification of TH; also called unliganded TH) not shown | –
– | 508 ± 59 nM | B1 | stoichiometry N [5]: 8 subunits in the oligomer and 4 subunits in the oligomer; Kd [6]: 139 ± 19 nM
binds | – | PAH-p.R261Q (enzyme, human, phenylalanine hydroxylase (PAH), human, disease-associated variant p.R261Q; Derived from pMAL-c5x/PAH, which encodes human PAH-WT; called tetrameric in the legends; also called PKU-associated variant PAH-p.R261Q; source: E. coli K12 TB1, purified) MSTAVLENPGLGRKLSDFGQETSYIEDNCNQNGAISLIFSLKEEVGALAKVLRLFEENDVNLTHIESRPSRLKKDEYEFFTHLDKRSLPALTNIIKILRHDIGATVHELSRDKKKDTVPWFPRTIQELDRFANQILSYGAELDADHPGFKDPVYRARRKQFADIAYNYRHGQPIPRVEYMEEEKKTWGTVFKTLKSLYKTHACYEYNHIFPLLEKYCGFHEDNIPQLEDVSQFLQTCTGFRLRPVAGLLSSRDFLGGLAFQVFHCTQYIRHGSKPMYTPEPDICHELLGHVPLFSDRSFAQFSQEIGLASLGAPDEYIEKLATIYWFTVEFGLCKQGDSIKAYGAGLLSSFGELQYCLSEKPKLLPLELEKTAIQNYTVTEFQPLYYVAESFNDAKEKVRNFAATIPRPFSVRYDPYTQRIEVLDNTQQLKILADSINSEIGILCSALQKIK | –
